Reference: PMC11531568, “Single-molecule imaging and molecular dynamics simulations reveal early activation of the MET receptor in cells” (Nature Communications, 2024)
Residue numbers refer to the chain shown, from its start. Names and notes keep the numbering of the source.

B1: InlB321 K280C variant (with C242A), fluorophore-labeled (domain or fragment)
chain: ETITVPTPIKQIFSDDAFAETIKDNLKKKSVTDAVTQNELNSIDQIIANNSDIKSVQGIQYLPNVTKLFLNGNKLTDIKPLANLKNLGWLFLDENKVKDLSSLKDLKKLKSLSLEHNGISDINGLVHLPQLESLYLGNNKITDITVLSRLTKLDTLSLEDNQISDIVPLAGLTKLQNLYLSKNHISDLRALAGLKNLDVLELFSQEALNKPINHQSNLVVPNTVKNTDGSLVTPEIISDDGDYECPNVKWHLPEFTNEVSFIFYQPVTIGKAKARFHGRVTQPLKE
modifications: Cy3B or ATTO 647N attached by maleimide chemistry to the single cysteine at position 280
notes: Internalin B (InlB), invasion protein of Listeria monocytogenes, amino acids 36-321 of the full-length InlB (cap, leucine-rich repeat and inter-repeat region); The donor-labeled (Cy3B) and acceptor-labeled (ATTO 647N) batches of this variant are written as one molecule; Vector pETM30; also called T variant; tail
B2: InlB321 K64C variant (with C242A), fluorophore-labeled (domain or fragment)
chain: B1 chain with K29C, C245K
modifications: Cy3B or ATTO 647N attached by maleimide chemistry to the single cysteine at position 64
notes: Internalin B (InlB), invasion protein of Listeria monocytogenes, amino acids 36-321 of the full-length InlB (cap, leucine-rich repeat and inter-repeat region); The donor-labeled (Cy3B) and acceptor-labeled (ATTO 647N) batches of this variant are written as one molecule; Vector pETM30; also called H variant; head

Biological target: the molecule itself
Assay: single-molecule photobleaching step analysis; U-2 OS cells labeled with a single Cy3B-labeled InlB321 variant; number of InlB321 in one spot on the plasma membrane

Row | Protein | stoichiometry N
1 | B1 | 2
2 | B2 | 2
